In patent EP1149909A1:

Molecular target: ClpA (E. coli) (UniProt P0ABH9)
Assay: cell-based or functional assay

Chain of UniProt P0ABH9 (P0ABH9 whole entry): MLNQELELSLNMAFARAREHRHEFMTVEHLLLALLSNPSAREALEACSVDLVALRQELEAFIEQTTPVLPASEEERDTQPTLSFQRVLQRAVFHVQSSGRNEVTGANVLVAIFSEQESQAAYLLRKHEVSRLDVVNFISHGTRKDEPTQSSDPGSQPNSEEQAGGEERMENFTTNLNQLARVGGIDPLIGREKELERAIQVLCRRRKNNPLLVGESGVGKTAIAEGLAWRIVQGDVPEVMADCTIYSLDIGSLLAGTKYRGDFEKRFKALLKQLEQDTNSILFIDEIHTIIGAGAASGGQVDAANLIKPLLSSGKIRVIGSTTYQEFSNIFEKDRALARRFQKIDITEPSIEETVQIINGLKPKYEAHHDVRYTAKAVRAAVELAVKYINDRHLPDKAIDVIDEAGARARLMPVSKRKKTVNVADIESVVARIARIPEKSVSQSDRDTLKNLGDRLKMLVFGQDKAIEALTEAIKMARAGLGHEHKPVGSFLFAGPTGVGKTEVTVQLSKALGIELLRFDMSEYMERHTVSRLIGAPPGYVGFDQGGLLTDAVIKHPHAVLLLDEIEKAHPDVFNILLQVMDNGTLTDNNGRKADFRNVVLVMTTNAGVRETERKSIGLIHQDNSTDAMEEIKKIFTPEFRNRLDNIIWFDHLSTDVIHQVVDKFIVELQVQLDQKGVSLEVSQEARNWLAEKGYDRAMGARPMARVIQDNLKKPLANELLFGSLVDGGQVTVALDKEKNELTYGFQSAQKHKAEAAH

ClpS
MDH activity (reactivation of heat-aggregated malate dehydrogenase), rate and yield: > 2 fold
